The record followed here is patent publication US20250026849A1 (ARCELLX, published 2025).

The labels stand for the following.
T1: P26 (human, UniProt P02771 381-609, limits assumed)
T1 construct: also called AFP p26
T1 sequence: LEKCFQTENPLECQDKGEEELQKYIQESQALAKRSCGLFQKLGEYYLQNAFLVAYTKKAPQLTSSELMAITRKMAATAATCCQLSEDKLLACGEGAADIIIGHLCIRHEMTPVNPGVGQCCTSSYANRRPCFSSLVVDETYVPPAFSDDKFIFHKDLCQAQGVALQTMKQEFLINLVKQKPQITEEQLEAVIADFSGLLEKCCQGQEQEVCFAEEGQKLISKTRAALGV

B1: D domain SEQ ID NO: 975 (designed binder)
chain: MGSWSVFKDDLAQIKDRLEALGGSEAELAQFELDIAWFEYVLQFYKGKGNPEVEALRKEAAAIRDELQAYRHN
B2: D domain SEQ ID NO: 976 (designed binder)
chain: MGSWAVFKDSLAHIKDVLEALGGSEAELALFEMDIAWFEYVLQDYKGKGNPEVEALRKEAAAIRDELQAYRHN
B3: D domain SEQ ID NO: 981 (designed binder)
chain: MGSWHSFKQDLAYIKYLLEALGGSEAELAQFEELIAFFEYYLQTYKGKGNPEVEALRKEAAAIRDELQAYRHN
B4: D domain SEQ ID NO: 970 (designed binder)
chain: MGSWVEFKRDLANIKQRLEALGGSEAELAQFEMQIAWFEHTLQYYKGKGNPEVEALRKEAAAIRDELQAYRHN
B5: D domain SEQ ID NO: 968 (designed binder)
chain: MGSWFTFKDDLAQIKNRLEALGGSEAELANFEMSIAWFEFMLQYYKGKGNPEVEALRKEAAAIRDELQAYRHN
B6: D domain SEQ ID NO: 974 (designed binder)
chain: MGSWSIFKDDLAVIKERLEALGGSEAELAHFEQDIAWFEHLLQYYKGKGNPEVEALRKEAAAIRDELQAYRHN
B7: D domain SEQ ID NO: 971 (designed binder)
chain: MGSWSYFKEDLANIKSSLEALGGSEAELAWFESSIAWFEHTLQYYKGKGNPEVEALRKEAAAIRDELQAYRHN
B8: D domain SEQ ID NO: 980 (designed binder)
chain: MGSWKNFKLELALIKSKLEALGGSEAELAQFEADIAFFEWSLQWYKGKGNPEVEALRKEAAAIRDELQAYRHN
B9: D domain SEQ ID NO: 982 (designed binder)
chain: MGSWVVFKSSLAQIKILLEALGGSEAELAIFEVKIAHFEQELQEYKGKGNPEVEALRKEAAAIRDELQAYRHN
B10: D domain SEQ ID NO: 983 (designed binder)
chain: MGSWDQFKNSLASIKRVLEALGGSEAELAIFEVKIAHFEHFLQQYKGKGNPEVEALRKEAAAIRDELQAYRHN
B11: D domain SEQ ID NO: 979 (designed binder)
chain: MGSWMVFKQDLAEIKANLEALGGSEAELADFEFAIAWFEYELQWYKGKGNPEVEALRKEAAAIRDELQAYRHN
B12: D domain SEQ ID NO: 977 (designed binder)
chain: MGSWIAFKDHLAIIKQRLEALGGSEAELARFEFEIAWFEWMLQYYKGKGNPEVEALRKEAAAIRDELQAYRHN
B13: D domain SEQ ID NO: 984 (designed binder)
chain: MGSWNNFKSSLASIKQVLEALGGSEAELAVFELQIAHFERELQYYKGKGNPEVEALRKEAAAIRDELQAYRHN
B14: D domain SEQ ID NO: 978 (designed binder)
chain: MGSWIHFKNDLAVIKDELEALGGSEAELARFEIMIAWFEDALQWYKGKGNPEVEALRKEAAAIRDELQAYRHN
B15: D domain SEQ ID NO: 973 (designed binder)
chain: MGSWEIFKDDLASIKKVLEALGGSEAELALFESDIAWFELMLQYYKGKGNPEVEALRKEAAAIRDELQAYRHN
B16: D domain SEQ ID NO: 967 (designed binder)
chain: MGSWYTFKGSLAEIKNRLEALGGSEAELAMFESDIAWFEFMLQFYKGKGNPEVEALRKEAAAIRDELQAYRHN

This assay concerns the target T1, P26. As to the kind of experiment: ELISA, format not described. Also noted: unit not given here. (ELISA stands for enzyme-linked immunosorbent assay.)
The molecule B1 registered an ELISA_avg of 30.3. B2: the ELISA_avg came to 24.1. The molecule B3 registered an ELISA_avg of 25.6. B4 had an ELISA_avg of 30.4. The molecule B5 displayed an ELISA_avg of 30.8. The value for B6 was 25.6; that for B7 was 11.6; that for B8 was 20.6. Molecule B9 returned an ELISA_avg of 8.6. B10: the ELISA_avg is 15.6. B11 came in with an ELISA_avg of 17.8. The molecule B12 yielded an ELISA_avg of 29.9.

Take B13: the ELISA_avg turned out to be 24.1. The value for B14 was 17.9. Take B15: the ELISA_avg is 27.9. For B16, the ELISA_avg was 32.3.
